The record followed here is publication PMC12102759 (2025).

To fix the notation:
B1: RNF115 peptide 69-84 (E3 ubiquitin-protein ligase RNF115), 16-mer library wild type / MDM2 SWIB (MDM2 SWIB/MDM2 domain, residues 17-125) (parent complex)
chain 1: THFAELWGHLDHTMFF
chain 2: SQIPASEQETLVRPKPLLLKLLKSVGAQKDTYTMKEVLFYLGQYIMTKRLYDEKQQHIVYCSNDLLGDLFGVPSFSVKEHRKIYTMIYRNLVVVNQQESSDSGTSVSEN
B2: AMOTL2 peptide 64-79 (Angiomotin-like protein 2), 16-mer library wild type / TNKS ANK (TNKS 12 ANK repeats, residues 174-649) (parent complex)
chain 1: QVLQQATRQEPQGQEH
chain 2: TGVPAVSGALRELLEACRNGDVSRVKRLVDAANVNAKDMAGRKSSPLHFAAGFGRKDVVEHLLQMGANVHARDDGGLIPLHNACSFGHAEVVSLLLCQGADPNARDNWNYTPLHEAAIKGKIDVCIVLLQHGADPNIRNTDGKSALDLADPSAKAVLTGEYKKDELLEAARSGNEEKLMALLTPLNVNCHASDGRKSTPLHLAAGYNRVRIVQLLLQHGADVHAKDKGGLVPLHNACSYGHYEVTELLLKHGACVNAMDLWQFTPLHEAASKNRVEVCSLLLSHGADPTLVNCHGKSAVDMAPTPELRERLTYEFKGHSLLQAAREADLAKVKKTLALEIINFKQPQSHETALHCAVASLHPKRKQVTELLLRKGANVNEKNKDFMTPLHVAAERAHNDVMEVLHKHGAKMNALDTLGQTALHRAALAGHLQTCRLLLSYGSDPSIISLQGFTAAQMGNEAVQQILSESTPIRTSD

One assay covers variants of B1. The experiment in a line: proteomic peptide phage display deep mutational scan (ProP-PD DMS): M13 P8 16-mer library selected against immobilised GST-tagged bait for four days (rounds), NGS of the eluted pools per day and pseudo-replica; bait immobilised on MaxiSorp plates (10 µg), library pre-cleared on GST, 2 h binding at 4 °C, five washes; one round per day, days 1-4; value from days 2 and 3.
As to chain 1 H12P, the screen value is 0.000332 average fractional NGS count over selection days 2 and 3 (reads of this peptide / all reads for the bait, averaged over …. On to chain 1 H12Q, for which the screen value is 0.000843 average fractional NGS count over selection days 2 and 3 (reads of this peptide / all reads for the bait, averaged over …. For chain 1 H2N, the screen value was 0.000593 average fractional NGS count over selection days 2 and 3 (reads of this peptide / all reads for the bait, averaged over …. For chain 1 H2W, the screen value was 0.000523 average fractional NGS count over selection days 2 and 3 (reads of this peptide / all reads for the bait, averaged over …. For chain 1 H2Q, the screen value is 0.00104 average fractional NGS count over selection days 2 and 3 (reads of this peptide / all reads for the bait, averaged over …. The same measure, in the same setting: the same measure for chain 1 H2R: 0.000186 average fractional NGS count over selection days 2 and 3 (reads of this peptide / all reads for the bait, averaged over …; for chain 1 H2Y: 0.000608 average fractional NGS count over selection days 2 and 3 (reads of this peptide / all reads for the bait, averaged over …. Same read-out and setting: the same measure for chain 1 H2E: 0.000801 average fractional NGS count over selection days 2 and 3 (reads of this peptide / all reads for the bait, averaged over …. With chain 1 H2S, the screen value is 0.0241 average fractional NGS count over selection days 2 and 3 (reads of this peptide / all reads for the bait, averaged over …. Still for that read-out and setting: the same measure for chain 1 H2D: 0.00139 average fractional NGS count over selection days 2 and 3 (reads of this peptide / all reads for the bait, averaged over …; for chain 1 H2G: 0.0014 average fractional NGS count over selection days 2 and 3 (reads of this peptide / all reads for the bait, averaged over …. Same read-out and setting: the same measure for chain 1 H2I: 0.000473 average fractional NGS count over selection days 2 and 3 (reads of this peptide / all reads for the bait, averaged over …; for chain 1 H2V: 0.00468 average fractional NGS count over selection days 2 and 3 (reads of this peptide / all reads for the bait, averaged over …. For the variant chain 1 H2A, the screen value was 0.000678 average fractional NGS count over selection days 2 and 3 (reads of this peptide / all reads for the bait, averaged over …. In the case of chain 1 A4E, the screen value was 0.000667 average fractional NGS count over selection days 2 and 3 (reads of this peptide / all reads for the bait, averaged over …. As for chain 1 A4F, the screen value is 0.000182 average fractional NGS count over selection days 2 and 3 (reads of this peptide / all reads for the bait, averaged over …. On the same count and under the same terms, the same measure for chain 1 A4V: 0.000584 average fractional NGS count over selection days 2 and 3 (reads of this peptide / all reads for the bait, averaged over …; for chain 1 A4W: 0.000398 average fractional NGS count over selection days 2 and 3 (reads of this peptide / all reads for the bait, averaged over …; for chain 1 A4P: 0.000473 average fractional NGS count over selection days 2 and 3 (reads of this peptide / all reads for the bait, averaged over …. For chain 1 A4S, the screen value was 0.00536 average fractional NGS count over selection days 2 and 3 (reads of this peptide / all reads for the bait, averaged over …. For chain 1 A4I, the screen value was 0.000788 average fractional NGS count over selection days 2 and 3 (reads of this peptide / all reads for the bait, averaged over ….

Take chain 1 A4M: the screen value is 0.000942 average fractional NGS count over selection days 2 and 3 (reads of this peptide / all reads for the bait, averaged over …. Still for that read-out and setting: the same measure for chain 1 A4H: 0.00203 average fractional NGS count over selection days 2 and 3 (reads of this peptide / all reads for the bait, averaged over …; for chain 1 A4T: 0.000121 average fractional NGS count over selection days 2 and 3 (reads of this peptide / all reads for the bait, averaged over ….

For the variant chain 1 F3Q, the screen value was 0.000412 average fractional NGS count over selection days 2 and 3 (reads of this peptide / all reads for the bait, averaged over ….

As to chain 1 F3T, the screen value is 9.19e-05 average fractional NGS count over selection days 2 and 3 (reads of this peptide / all reads for the bait, averaged over …. Same read-out and setting: the same measure for chain 1 T13H: 0.00485 average fractional NGS count over selection days 2 and 3 (reads of this peptide / all reads for the bait, averaged over …; for chain 1 T13D: 0.00412 average fractional NGS count over selection days 2 and 3 (reads of this peptide / all reads for the bait, averaged over …. Regarding chain 1 T13V, the screen value was 0.0019 average fractional NGS count over selection days 2 and 3 (reads of this peptide / all reads for the bait, averaged over ….

Regarding chain 1 T13G, the screen value is 0.00624 average fractional NGS count over selection days 2 and 3 (reads of this peptide / all reads for the bait, averaged over …. The same measure, in the same setting: the same measure for chain 1 T13W: 0.000505 average fractional NGS count over selection days 2 and 3 (reads of this peptide / all reads for the bait, averaged over …; for chain 1 T13R: 0.00097 average fractional NGS count over selection days 2 and 3 (reads of this peptide / all reads for the bait, averaged over …; for chain 1 T13Q: 0.000442 average fractional NGS count over selection days 2 and 3 (reads of this peptide / all reads for the bait, averaged over ….

chain 1 T13A: the screen value was 0.00106 average fractional NGS count over selection days 2 and 3 (reads of this peptide / all reads for the bait, averaged over …. Same read-out and setting: the same measure for chain 1 T13Y: 0.00269 average fractional NGS count over selection days 2 and 3 (reads of this peptide / all reads for the bait, averaged over …; for chain 1 T13P: 0.000265 average fractional NGS count over selection days 2 and 3 (reads of this peptide / all reads for the bait, averaged over …; for chain 1 T13M: 0.000376 average fractional NGS count over selection days 2 and 3 (reads of this peptide / all reads for the bait, averaged over …. On the same count and under the same terms, the same measure for chain 1 L10M: 0.00099 average fractional NGS count over selection days 2 and 3 (reads of this peptide / all reads for the bait, averaged over …; for chain 1 L10F: 0.00105 average fractional NGS count over selection days 2 and 3 (reads of this peptide / all reads for the bait, averaged over ….

As for chain 1 L10I, the screen value is 0.00104 average fractional NGS count over selection days 2 and 3 (reads of this peptide / all reads for the bait, averaged over …. Take chain 1 L10V: the screen value is 0.000492 average fractional NGS count over selection days 2 and 3 (reads of this peptide / all reads for the bait, averaged over ….

The variants in another assay derive from B2. Described as above.
Consider chain 1 E10T, for which the screen value was 0.00297 average fractional NGS count over selection days 2 and 3 (reads of this peptide / all reads for the bait, averaged over ….

With chain 1 E10S, the screen value was 0.000835 average fractional NGS count over selection days 2 and 3 (reads of this peptide / all reads for the bait, averaged over …. Regarding chain 1 E10P, the screen value was 0.00208 average fractional NGS count over selection days 2 and 3 (reads of this peptide / all reads for the bait, averaged over …. Same read-out and setting: the same measure for chain 1 Q5H: 0.0129 average fractional NGS count over selection days 2 and 3 (reads of this peptide / all reads for the bait, averaged over …. Consider chain 1 Q5I, for which the screen value is 0.00183 average fractional NGS count over selection days 2 and 3 (reads of this peptide / all reads for the bait, averaged over ….

Consider chain 1 V2M, for which the screen value was 0.000248 average fractional NGS count over selection days 2 and 3 (reads of this peptide / all reads for the bait, averaged over …. Same read-out and setting: the same measure for chain 1 V2D: 0.000341 average fractional NGS count over selection days 2 and 3 (reads of this peptide / all reads for the bait, averaged over …; for chain 1 A6F: 0.00286 average fractional NGS count over selection days 2 and 3 (reads of this peptide / all reads for the bait, averaged over …; for chain 1 A6M: 0.000267 average fractional NGS count over selection days 2 and 3 (reads of this peptide / all reads for the bait, averaged over …. With chain 1 A6L, the screen value was 0.000992 average fractional NGS count over selection days 2 and 3 (reads of this peptide / all reads for the bait, averaged over …. Consider chain 1 A6Q, for which the screen value was 0.00606 average fractional NGS count over selection days 2 and 3 (reads of this peptide / all reads for the bait, averaged over ….

Consider chain 1 A6D, for which the screen value is 0.000263 average fractional NGS count over selection days 2 and 3 (reads of this peptide / all reads for the bait, averaged over …. Take chain 1 A6T: the screen value was 0.000175 average fractional NGS count over selection days 2 and 3 (reads of this peptide / all reads for the bait, averaged over …. Regarding chain 1 Q12F, the screen value was 0.00125 average fractional NGS count over selection days 2 and 3 (reads of this peptide / all reads for the bait, averaged over …. With chain 1 Q12A, the screen value is 0.00119 average fractional NGS count over selection days 2 and 3 (reads of this peptide / all reads for the bait, averaged over …. With chain 1 Q12P, the screen value is 0.000174 average fractional NGS count over selection days 2 and 3 (reads of this peptide / all reads for the bait, averaged over …. The same measure, in the same setting: the same measure for chain 1 L3N: 0.00173 average fractional NGS count over selection days 2 and 3 (reads of this peptide / all reads for the bait, averaged over …. In the case of chain 1 Q4G, the screen value is 0.000278 average fractional NGS count over selection days 2 and 3 (reads of this peptide / all reads for the bait, averaged over …. The same measure, in the same setting: the same measure for chain 1 Q4E: 0.000127 average fractional NGS count over selection days 2 and 3 (reads of this peptide / all reads for the bait, averaged over …; for chain 1 Q9D: 0.00088 average fractional NGS count over selection days 2 and 3 (reads of this peptide / all reads for the bait, averaged over …. chain 1 Q9S: the screen value was 0.000874 average fractional NGS count over selection days 2 and 3 (reads of this peptide / all reads for the bait, averaged over …. For chain 1 Q9T, the screen value is 0.000851 average fractional NGS count over selection days 2 and 3 (reads of this peptide / all reads for the bait, averaged over …. With chain 1 T7F, the screen value was 0.000844 average fractional NGS count over selection days 2 and 3 (reads of this peptide / all reads for the bait, averaged over …. On the same count and under the same terms, the same measure for chain 1 T7S: 0.000189 average fractional NGS count over selection days 2 and 3 (reads of this peptide / all reads for the bait, averaged over …; for chain 1 T7Q: 0.000226 average fractional NGS count over selection days 2 and 3 (reads of this peptide / all reads for the bait, averaged over …. chain 1 Q14A: the screen value is 0.0303 average fractional NGS count over selection days 2 and 3 (reads of this peptide / all reads for the bait, averaged over ….

Consider chain 1 Q14M, for which the screen value was 0.000951 average fractional NGS count over selection days 2 and 3 (reads of this peptide / all reads for the bait, averaged over ….

For the variant chain 1 H16R, the screen value was 0.00349 average fractional NGS count over selection days 2 and 3 (reads of this peptide / all reads for the bait, averaged over …. Regarding chain 1 H16N, the screen value is 0.00139 average fractional NGS count over selection days 2 and 3 (reads of this peptide / all reads for the bait, averaged over …. With chain 1 H16Q, the screen value was 0.000195 average fractional NGS count over selection days 2 and 3 (reads of this peptide / all reads for the bait, averaged over …. Still for that read-out and setting: the same measure for chain 1 E15I: 9.73e-05 average fractional NGS count over selection days 2 and 3 (reads of this peptide / all reads for the bait, averaged over …; for chain 1 E15D: 0.000568 average fractional NGS count over selection days 2 and 3 (reads of this peptide / all reads for the bait, averaged over …; for chain 1 E15H: 0.000392 average fractional NGS count over selection days 2 and 3 (reads of this peptide / all reads for the bait, averaged over ….

On to chain 1 G13V, for which the screen value is 0.00137 average fractional NGS count over selection days 2 and 3 (reads of this peptide / all reads for the bait, averaged over ….
